In US6428985 (REGENTS OF THE UNIVERSITY OF MICHIGAN, dated 2002):
Numbering of substitutions follows the chain as printed. Numbers in names are those of the source.

Experiments:
[1] = molecular target: T1, mIL-10R1 on Ba/F3-mIL-10R1 cells (mouse pro-B cell line stably transfected with mIL-10R1) (murine, UniProt Q61727 17-575); test: flow cytometry on Ba/F3-mIL-10R1 cells, 100 ng purified IL-10-myc-his, 4° C. for 2 h
T1 construct: whole, on cells; also called IL-10 receptor
T1 sequence (looked up): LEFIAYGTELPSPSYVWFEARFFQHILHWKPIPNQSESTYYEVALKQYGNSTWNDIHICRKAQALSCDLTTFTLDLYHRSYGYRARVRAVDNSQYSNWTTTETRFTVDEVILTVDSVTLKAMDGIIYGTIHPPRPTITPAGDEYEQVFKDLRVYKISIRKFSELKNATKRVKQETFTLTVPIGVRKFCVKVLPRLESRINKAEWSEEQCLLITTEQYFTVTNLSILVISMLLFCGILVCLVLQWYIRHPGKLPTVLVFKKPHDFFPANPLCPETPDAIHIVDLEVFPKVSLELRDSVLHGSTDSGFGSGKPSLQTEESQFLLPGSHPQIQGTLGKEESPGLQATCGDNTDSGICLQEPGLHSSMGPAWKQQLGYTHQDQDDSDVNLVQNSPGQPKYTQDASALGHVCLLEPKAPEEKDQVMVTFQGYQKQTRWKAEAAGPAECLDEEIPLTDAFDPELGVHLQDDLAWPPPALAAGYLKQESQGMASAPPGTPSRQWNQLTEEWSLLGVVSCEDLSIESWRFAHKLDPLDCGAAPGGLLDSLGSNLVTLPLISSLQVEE

[2] = molecular target: T1, mIL-10R1 on Ba/F3-mIL-10R1 cells (mouse …); test: flow cytometry on Ba/F3-mIL-10R1 cells

B1: purified hIL-10-myc-his (human IL-10 with carboxyl terminal myc-his tag) (ligand)
chain: SPGQGTQSENSCTHFPGNLPNMLRDLRDAFSRVKTFFQMKDQLDNLLLKESLLEDFKGYLGCQALSEMIQFYLEEVMPQAENQDPDIKAHVNSLGENLKTLRLRLRRCHRFLPCENKSKAVEQVKNAFNKLQEKGIYKAMSEFDIFINYIEAYMTMKIRN
notes: also called C-terminal myc-his tagged hIL-10; not shown: C-terminal myc-his tag from the pcDNA3.1-myc-his vector
B1: binds [1].

B2: purified hIL-10(I87A)-myc-his (human IL-10 with the single mutation, carboxyl terminal myc-his tag) (ligand)
chain: B1 chain with I87A
notes: also called hIL-10(187A); Ala87 version of IL-10; not shown: C-terminal myc-his tag from the pcDNA3.1-myc-his vector
B2: binds [1].

B3: hIL-10 with amino terminal FLAG tag (pFLAGCMV-1 construct) (ligand, not shown: small tags and cut ends)
chain: B1 chain
notes: also called amino terminal FLAG construct of hIL-10
B3: binds [2].
